The subject of this series is T1, Bli1904II restriction endonuclease (Bacillus licheniformis).
T1 sequence: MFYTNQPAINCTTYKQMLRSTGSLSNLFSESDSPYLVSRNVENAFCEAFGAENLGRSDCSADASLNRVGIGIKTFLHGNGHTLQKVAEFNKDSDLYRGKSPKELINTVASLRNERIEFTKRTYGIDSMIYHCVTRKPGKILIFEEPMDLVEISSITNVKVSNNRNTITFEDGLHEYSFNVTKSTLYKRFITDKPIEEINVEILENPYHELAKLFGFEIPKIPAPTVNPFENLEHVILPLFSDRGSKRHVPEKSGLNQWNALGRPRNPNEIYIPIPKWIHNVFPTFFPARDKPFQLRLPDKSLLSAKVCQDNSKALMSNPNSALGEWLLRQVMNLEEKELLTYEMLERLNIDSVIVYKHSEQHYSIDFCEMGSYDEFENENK
Put plainly: cell_activity.

“GCNGC (double strand) [pCJ791 plasmid GCNGC sites, M.Bli1904II-methylated]” came in with an activity (transformants per ug DNA) (methylated by M.Bli1904II at GCNGC (C5-cytosine type, position not stated), methylated plasmid not restricted in SJ1904, 7.2e3 in deletion strain MDT269) of 16000.

As for “GCNGC (double strand) [pCJ791 plasmid GCNGC sites, unmethylated]”, where the note is “restriction of unmethylated plasmid in SJ1904, 6.4e3 in Bli1904II deletion strain MDT269, site inferred from cognate methylase”, the activity (transformants per ug DNA) was found to be 17.

Source of the values: patent US20100055739.
